Test results reported in IntAct's records for PubMed 12084833.

B1: Regulatory protein NPR1 (Arabidopsis thaliana (Mouse-ear cress)), P93002 (parent)
chain: MDTTIDGFADSYEISSTSFVATDNTDSSIVYLAAEQVLTGPDVSALQLLSNSFESVFDSPDDFYSDAKLVLSDGREVSFHRCVLSARSSFFKSALAAAKKEKDSNNTAAVKLELKEIAKDYEVGFDSVVTVLAYVYSSRVRPPPKGVSECADENCCHVACRPAVDFMLEVLYLAFIFKIPELITLYQRHLLDVVDKVVIEDTLVILKLANICGKACMKLLDRCKEIIVKSNVDMVSLEKSLPEELVKEIIDRRKELGLEVPKVKKHVSNVHKALDSDDIELVKLLLKEDHTNLDDACALHFAVAYCNVKTATDLLKLDLADVNHRNPRGYTVLHVAAMRKEPQLILSLLEKGASASEATLEGRTALMIAKQATMAVECNNIPEQCKHSLKGRLCVEILEQEDKREQIPRDVPPSFAVAADELKMTLLDLENRVALAQRLFPTEAQAAMEIAEMKGTCEFIVTSLEPDRLTGTKRTSPGVKIAPFRILEEHQSRLKALSKTVELGKRFFPRCSAVLDQIMNCEDLTQLACGEDDTAEKRLQKKQRYMEIQETLKKAFSEDNLELGNSSLTDSTSSTSKSTGGKRSNRKLSHRRR
partner: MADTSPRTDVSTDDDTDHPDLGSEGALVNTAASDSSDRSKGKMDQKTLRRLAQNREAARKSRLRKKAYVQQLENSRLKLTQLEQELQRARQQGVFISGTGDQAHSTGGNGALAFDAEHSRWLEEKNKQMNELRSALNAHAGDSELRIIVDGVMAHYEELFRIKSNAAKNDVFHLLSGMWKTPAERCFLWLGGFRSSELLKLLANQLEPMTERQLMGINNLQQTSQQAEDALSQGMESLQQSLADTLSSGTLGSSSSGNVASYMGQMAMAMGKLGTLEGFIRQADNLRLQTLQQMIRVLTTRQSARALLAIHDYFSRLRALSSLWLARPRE

Variants of: B1
Settings: with tga2_arath TGA2, P43273
MDTTIDGFADSYEISSTSFVATDNTDSSIVYLAAEQVLTGPDVSALQLLSNSFESVFDSPDDFYSDAKLVLSDGREVSFHRCVLSARSSFFKSALAAAKKEKDSNNTAAVKLELKEIAKDYEVGFDSVVTVLAYVYSSRVRPPPKGVSEYADENCCHVACRPAVDFMLEVLYLAFIFKIPELITLYQRHLLDVVDKVVIEDTLVILKLANICGKACMKLLDRCKEIIVKSNVDMVSLEKSLPEELVKEIIDRRKELGLEVPKVKKHVSNVHKALDSDDIELVKLLLKEDHTNLDDACALHFAVAYCNVKTATDLLKLDLADVNHRNPRGYTVLHVAAMRKEPQLILSLLEKGASASEATLEGRTALMIAKQATMAVECNNIPEQCKHSLKGRLCVEILEQEDKREQIPRDVPPSFAVAADELKMTLLDLENRVALAQRLFPTEAQAAMEIAEMKGTCEFIVTSLEPDRLTGTKRTSPGVKIAPFRILEEHQSRLKALSKTVELGKRFFPRCSAVLDQIMNCEDLTQLACGEDDTAEKRLQKKQRYMEIQETLKKAFSEDNLELGNSSLTDSTSSTSKSTGGKRSNRKLSHRRR [C150Y] was tested, and the “effect of a mutation on the interaction” value was “disrupting interaction”.
